# Data reported in PMC9974061.
# Key:
# [1] = molecular target: TSG101, His-tagged recombinant (UniProt Q99816); assay: BLI; Octet RED96; biotinylated ALIX (1 ug/ml), TSG101 (0.5 ug/ml) or gal-3 (1 ug/ml) on streptavidin biosensors; two-fold dilutions of S (280-70 uM) and P domain (144-36 uM); 20 mM HEPES, 150 mM NaCl, 0.005% Tween 20, 2 mg/ml BSA, pH 7.8; 2:1 model
# [2] = molecular target: apoptosis-linked gene 2-interacting protein X (ALIX), His-tagged recombinant (UniProt Q8WUM4); assay: as above
# [3] = molecular target: galectin-3 (gal-3), recombinant (UniProt P17931)
# Chain of galectin-3 (gal-3), recombinant (P17931 whole entry): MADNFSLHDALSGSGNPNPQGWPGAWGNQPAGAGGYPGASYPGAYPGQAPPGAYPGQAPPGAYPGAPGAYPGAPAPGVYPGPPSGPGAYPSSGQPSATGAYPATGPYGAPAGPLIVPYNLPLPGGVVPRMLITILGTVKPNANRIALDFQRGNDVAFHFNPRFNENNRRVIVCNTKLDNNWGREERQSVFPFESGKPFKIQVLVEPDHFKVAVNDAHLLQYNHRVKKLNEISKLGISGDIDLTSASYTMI
# Chain of TSG101, His-tagged recombinant (Q99816 whole entry): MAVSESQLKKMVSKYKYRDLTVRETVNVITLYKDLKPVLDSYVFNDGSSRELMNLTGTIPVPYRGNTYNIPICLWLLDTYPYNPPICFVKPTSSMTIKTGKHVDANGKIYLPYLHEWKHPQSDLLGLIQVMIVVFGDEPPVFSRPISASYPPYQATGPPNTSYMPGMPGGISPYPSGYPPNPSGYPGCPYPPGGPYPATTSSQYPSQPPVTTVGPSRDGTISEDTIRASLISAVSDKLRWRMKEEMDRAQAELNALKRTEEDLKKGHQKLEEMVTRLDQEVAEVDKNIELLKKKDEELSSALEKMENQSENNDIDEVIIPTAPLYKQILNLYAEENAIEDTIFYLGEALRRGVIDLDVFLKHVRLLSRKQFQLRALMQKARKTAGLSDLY
# Chain of apoptosis-linked gene 2-interacting protein X (ALIX), His-tagged recombinant (Q8WUM4 whole entry): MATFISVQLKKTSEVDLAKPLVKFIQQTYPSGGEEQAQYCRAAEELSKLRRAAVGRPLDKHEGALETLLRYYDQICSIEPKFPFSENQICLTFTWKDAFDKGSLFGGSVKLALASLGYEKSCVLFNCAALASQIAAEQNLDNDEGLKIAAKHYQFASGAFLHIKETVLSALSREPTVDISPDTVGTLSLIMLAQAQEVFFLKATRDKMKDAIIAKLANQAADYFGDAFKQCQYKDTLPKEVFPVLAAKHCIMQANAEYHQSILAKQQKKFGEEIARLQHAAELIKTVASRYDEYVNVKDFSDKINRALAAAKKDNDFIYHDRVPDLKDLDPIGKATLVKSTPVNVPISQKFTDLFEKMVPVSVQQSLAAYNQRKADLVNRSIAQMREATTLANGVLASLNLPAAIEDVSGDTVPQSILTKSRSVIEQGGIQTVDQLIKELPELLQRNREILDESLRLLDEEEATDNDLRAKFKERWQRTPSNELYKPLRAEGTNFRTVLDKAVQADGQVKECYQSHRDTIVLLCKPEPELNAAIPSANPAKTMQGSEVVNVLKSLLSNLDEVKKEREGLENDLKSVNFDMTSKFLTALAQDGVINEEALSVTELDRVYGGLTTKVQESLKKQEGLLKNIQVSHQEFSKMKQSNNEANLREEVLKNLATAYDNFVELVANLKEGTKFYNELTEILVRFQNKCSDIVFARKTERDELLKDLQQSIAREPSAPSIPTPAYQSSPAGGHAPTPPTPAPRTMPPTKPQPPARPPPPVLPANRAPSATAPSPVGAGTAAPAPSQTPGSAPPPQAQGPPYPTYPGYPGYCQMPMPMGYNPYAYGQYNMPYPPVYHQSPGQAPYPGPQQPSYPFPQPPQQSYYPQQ
Substance,Kd [1] [µM],Kd [2] [µM],GII.4 virus (stool isolate) replication in J2 HIEs at 24 h in the presence of anti-gal-3 antibody [3] [% reduction]
GII.4 capsid Shell (S) domain (domain or fragment),21.5,9.92,
GII.4 Sydney/2012 virus-like particles (complex),,,98
